Target: N-terminally truncated N-terminally His6-tagged human aspartate/asparagine-β-hydroxylase (His6-AspH315–758) (human) (UniProt Q12797)
UniProt Q12797, sequence (Q12797 315-758): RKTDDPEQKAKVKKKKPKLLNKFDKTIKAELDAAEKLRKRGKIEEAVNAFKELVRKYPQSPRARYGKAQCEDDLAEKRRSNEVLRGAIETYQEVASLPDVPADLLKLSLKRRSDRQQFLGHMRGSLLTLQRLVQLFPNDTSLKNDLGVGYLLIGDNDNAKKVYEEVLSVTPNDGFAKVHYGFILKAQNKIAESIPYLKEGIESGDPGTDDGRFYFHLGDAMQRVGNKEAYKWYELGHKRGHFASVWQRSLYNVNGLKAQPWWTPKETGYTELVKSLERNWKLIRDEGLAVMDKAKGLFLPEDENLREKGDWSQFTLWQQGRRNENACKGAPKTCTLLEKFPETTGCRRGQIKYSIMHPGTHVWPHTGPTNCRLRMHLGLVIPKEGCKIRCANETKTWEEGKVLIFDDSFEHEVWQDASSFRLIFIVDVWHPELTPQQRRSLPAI

| Km of AspH for the peptide substrate, steady-state kinetics of hydroxylation by SPE-MS (0.1 μM His6-AspH315–758, 50 mM Hepes, pH 7.5, 20 °C) | Substance |
| --- | --- |
| 7.9 μM | hHMCN1-CP5164–5182, thioether-bridged cyclic peptide derived from EGFD2 of human hemicentin-1 (from UniProt Q96RW7 5164-5182) |
| 47 μM | hLYPD6B-CP65–83, thioether-bridged cyclic peptide derived from the LU domain of human LYPD6B (from UniProt Q8NI32 65-83) |

Source: publication PMC9293771
